According to patent US20220259298A1 (KYOTO UNIVERSITY, published 2022):
Numbering of substitutions follows the chain as printed. Where two headings read alike, the source gives them in different places.

Tests used:
[1] = molecular target: T1, N-terminal PA-tagged mouse USAG-1 (WISE) recombinant protein (mouse, UniProt Q9CQN4 24-206); experiment: cell-based or functional assay
T1 sequence (looked up): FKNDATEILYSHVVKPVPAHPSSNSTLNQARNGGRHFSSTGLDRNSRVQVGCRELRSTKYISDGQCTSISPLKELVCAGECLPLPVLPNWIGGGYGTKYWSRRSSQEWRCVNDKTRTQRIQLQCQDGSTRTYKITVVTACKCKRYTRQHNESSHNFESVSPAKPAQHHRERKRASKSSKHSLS

[2] = molecular target: T1, N-terminal PA-tagged mouse USAG-1 …; experiment: BLI (Octet), antibody immobilized on the biosensor, mouse USAG-1 at 10, 30, 100 nM, global fitting
Procedure: For 8 out of the 9 antibodies grouped in Example 8, affinities (KD values) were determined by using the same Octet-based BLI method as in Example 8. […] The affinities were calculated by subjecting the obtained curves to global fitting with an analysis program attached to the Octet device.

[3] = molecular target: T2, 15 amino acid peptide for epitope mapping QEWRCVNDKTRTQRI (SEQ ID NO: 32) (human); experiment: peptide array on cellulose membrane, HRP-conjugated anti-mouse antibody, ECL
T2 peptide: QEWRCVNDKTRTQRI
Procedure: (§1) Briefly, 169 overlapping peptides of 15 amino acids were synthesized based on a human USAG-1 protein sequence (183 amino acid length) excluding a signal peptide by shifting the 15 amino acid sequence from the beginning by one amino acid to prepare a peptide library. The 169 kinds of peptides were bound onto a cellulose membrane to prepare a peptide array. […] After washing, an HRP-conjugated anti-mouse antibody (1/25000 dilution) was added as a secondary antibody, and ECL solution was used for color development.

[4] = molecular target: T3, 15 amino acid peptide for epitope mapping EWRCVNDKTRTQRIQ (SEQ ID NO: 33) (human); experiment: as above
T3 peptide: EWRCVNDKTRTQRIQ
Procedure: as §1

[5] = molecular target: T4, 15 amino acid peptide for epitope mapping WRCVNDKTRTQRIQL (SEQ ID NO: 34) (human); experiment: as above
T4 peptide: WRCVNDKTRTQRIQL
Procedure: as §1

[6] = molecular target: T5, 15 amino acid peptide for epitope mapping RCVNDKTRTQRIQLQ (SEQ ID NO: 35) (human); experiment: as above
T5 peptide: RCVNDKTRTQRIQLQ
Procedure: as §1

[7] = molecular target: T6, 15 amino acid peptide for epitope mapping CVNDKTRTQRIQLQC (SEQ ID NO: 36) (human); experiment: as above
T6 peptide: CVNDKTRTQRIQLQC
Procedure: as §1

[8] = molecular target: T7, 15 amino acid peptide for epitope mapping VNDKTRTQRIQLQCQ (SEQ ID NO: 37) (human); experiment: as above
T7 peptide: VNDKTRTQRIQLQCQ
Procedure: as §1

[9] = molecular target: T8, human FLAG-tagged USAG-1 transiently forcibly expressed in HEK293 cells (human, UniProt Q6X4U4 24-206); experiment: immunostaining of HEK293 cells transiently expressing human FLAG-tagged USAG-1
T8 construct: whole, on cells; Immunostaining of transfected cells; not shown: FLAG tag
T8 sequence (looked up): T1 sequence (looked up) with S39N, S46T, V159M, A165V, L182M

human USAG-1 protein [10] = molecular target: T9, human USAG-1 protein (human, UniProt Q6X4U4 24-206); experiment: solid-phase ELISA of the hybridoma clone on the immunizing antigen (E. coli-derived human USAG-1, R & D systems), paragraph 134
T9 construct: mature
T9 sequence (looked up): T1 sequence (looked up) with S39N, S46T, V159M, A165V, L182M

human USAG-1 protein [11] = molecular target: T9, human USAG-1 protein; experiment: as above; remark: listed apart in the source

B1: mouse anti-USAG-1 neutralizing antibody C (B14) (antibody, V domains shown)
VH: EVQLQQSGPELVKPGASVKISCKASGYSFTGYYMNWVKQSPEKSLEWIGEINPTTGGTTYNQKFKAKATLTVDKSSSTAYMQLKSLTSEDSAVYYCARLHYDYDGVGYAMDYWGQGTSVTVSS
VL: DIVMTQSHKFMSTSVGDRVSITCKASQDVSTAVAWYQQKPGQSPKLLIYSASYRYTGVPARFTGSGSGTDFTFTISSVQAEDLAVYYCQQHYSTPPTFGGGTKLEIKR
notes: Raised against baculovirus-derived rat USAG-1
- EC50 against the BMP signaling inhibition by USAG-1 (BMP ALP assay, C2C12 cells, BMP7) [1]: 0.298 µg/mL
- EC50 against the Wnt signaling inhibition by USAG-1 (WNT reporter assay, luciferase) [1]: 4.73 µg/mL
- Kd [2]: 4.21 nM

B2: mouse anti-USAG-1 neutralizing antibody A (E37) (antibody, mouse IgG1, kappa, V domains shown)
VH: QVQLQQSDAELVNPGASVKISCKVSGYTFTDHTIHWMKQRPEQGLEWIGYIYPGDGSTKYNEKFKGKATLTADKSSSTAYMQLNSLTSEDSAVYFCARTETYYGRIYYYAMDYWGQGTSVTVSS
VL: QIVLSQSPAILSASPGEKVTMTCRASSSVSYMYWYQQKPGSSPKPWIYATSNLASGVPIRFSGSGSGTSYSLTISRVEAEDAATYYCQQWSSNLTFGAGTKLELKR
- binding result [3]: binds
- binding result [4]: binds
- binding result [5]: binds
- binding result [6]: binds
- binding result [7]: binds
- binding result [8]: binds
- binding result [9]: binds
- Kd [2]: 2.43 nM
- binding result (human USAG-1 protein [10]): binds

B3: mouse anti-USAG-1 neutralizing antibody B (E57) (antibody, mouse IgG1, kappa, V domains shown)
VH: EVQLQQSGPELVKPGASVKISCKTSGYSFTGYYMSWVKQSPEKSLEWIGEINPTTGGSTYNQKFKAKATLTVDKSSSTAYMQLKSLTSEDSAVYYCAREGYYSGISYDAMDYWGQGTSVTVSS
VL: DIQMTQTTSSLSASLGDRVTISCRASQDISNYLSWYQQKPDGTVKLLIYYTSRLHSGVPSRFSGSGSGTDYSLTISNLEQEDIATYFCQQGNTLPRTFGGGTKLEIKR
- binding result [9]: binds
- Kd [2]: 2.44 nM
- binding result (human USAG-1 protein [11]): binds

B4: mouse anti-USAG-1 neutralizing antibody E (B103) (antibody, mouse IgG1, kappa, V domains shown)
VH: DVQLQESGPGLVKPSQSLSLTCSVTGYSITSGYYWNWIRQFPGNKLEWMGCISYDGSNNYNPSLKNRISITRDTSKNQFFLKLNSVTTEDTATYYCARGGLLWGQGTTLTVSS
VL: DIQMTQSPSSLSASLGERVSLTCRASQEISGYLSWLQQKPDGNIKRLIYAASTLDSGVPKRFSGSRSGSDYSLTISRLESEDFADYYCLQYASYPWTFGGGTKLEIKR
notes: as for B1
- Kd [2]: 4.97 nM
